Here are results for 1 molecule from PMC5736527, “JUNGBRUNNEN1 Confers Drought Tolerance Downstream of the HD-Zip I Transcription Factor AtHB13”.

The target in the series is T1, AtHB13-GST (Arabidopsis thaliana, UniProt Q8LC03 1-294).
T1 sequence: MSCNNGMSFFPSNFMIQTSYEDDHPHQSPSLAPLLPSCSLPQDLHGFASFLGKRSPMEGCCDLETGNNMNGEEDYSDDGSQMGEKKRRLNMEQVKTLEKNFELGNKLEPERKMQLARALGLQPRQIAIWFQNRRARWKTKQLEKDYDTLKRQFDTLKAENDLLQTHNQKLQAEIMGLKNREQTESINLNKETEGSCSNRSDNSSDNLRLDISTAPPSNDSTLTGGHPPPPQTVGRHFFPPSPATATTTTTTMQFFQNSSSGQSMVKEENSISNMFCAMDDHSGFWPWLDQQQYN
Put plainly: EMSA; 200x unlabeled same-sequence competitor also run (lane 3); EMSA as in Wu et al. 2012, Odyssey Infrared EMSA kit (LI-COR); buffer, salt, pH and temperature not stated. The note with it: protein: recombinant; tags: GST (pDEST24, C-terminal fusion); chain copies: 2; label: 5'-DY682; blunt. (A gel shift assay detects complexes by their altered migration in electrophoresis.)

B1: JUB1 promoter 40-bp fragment (AtHB13BS-L) (dsDNA)
DNA 1: CTATAAAATTAGTTGCAATAAATGATTTAATTATTTTCCG
DNA 2: CGGAAAATAATTAAATCATTTATTGCAACTAATTTTATAG
B1: the binding result was “binds”.
